The nature of data set [1]: Plasma sCT after SC injection or printed patch with ViaDerm in pigs (Example 10). The data set is classed as in vivo. To be noted: for bioavailability: compared to SC. Here is the method:
Pigs (males, 10-12 kg, Large white) were treated as follows:
Group 1: 1 ml of salmon calcitonin containing 16.7 μg peptide (Miacalcin, Novartis Pharma Ag, Basle, Switzerland) was injected subcutaneously (S.C) to each pig (total 3 pigs).
Group 2: Each pig underwent 2 ViaDerm applications on one site on the back (150 micro-channels per cm^2). Patches of 400 μg sCT/patch of 1.4 cm^2 were placed on the treated area (total 3 pigs).
Group 3: Each pig underwent 2 ViaDerm applications on one site on the back (150 micro-channels per cm^2). Patches of 200 μg sCT/patch of 1.4 cm^2 were placed on the treated area (total 3 pigs).
In order to determine sCT concentrations in pig plasma an ELISA assay was performed (Diagnostic Systems Laboratories, Inc. Webster, Tex., USA).

In the next data set the test system is plasma Ca++. The data set can be described thus: In vivo bioactivity of sCT: plasma Ca++ concentrations in pigs (Example 10). The protocol: In vivo bioactivity of sCT was evaluated by measuring plasma Ca^++ concentrations. […] Transdermal administration from the printed patches yielded a ˜20% decrease in Ca^++ concentrations, regardless of sCT dose. Thus, sCT delivered transdermally remained intact and biologically active.

The next data set deals with blood glucose. The experiment in a line: Bioactivity of insulin in diabetic rats: blood glucose after printed patches or SC (Example 6). The data set is classed as in vivo. The protocol:
ViaDerm apparatus was used. The density of the microelectrode array used in these studies was 100 microelectrodes/cm^2. The device was applied twice on each location, so the density of the micro channels was 200/cm^2. The skin was treated with an applied voltage of 330V, frequency of 100 kHz, two bursts, 700 microsecond burst length, and no current limitation.
Male rats (300-325, Sprague Dawley, Harlan laboratories Ltd., Israel) were deprived of food and received water as libitum 48 hr prior to patch applications. Streptozotocin (55 mg/kg in citric buffer, 0.1 M, pH 4.5) was injected intraperitonally (IP) to the rats 24 hr prior to patch applications in order to induce diabetes. […] The diabetic rats were premedicated with IP injections of 10% ketamin/2% xylazine solution at a ratio of 70:30, 1 ml/kg. Anesthesia was maintained with either isofluorane or halothane gas. The abdominal skin hair was shaved carefully, and was cleaned with isopropyl alcohol. After 30 min, transepidermal water loss measurements (TEWL, Dermalab Cortex Technology, Hadsund, Denmark) were performed to check skin integrity. Skin micro-channeling was performed by the use of the ViaDerm instrument with the conditions described above. TEWL was then measured again to control the operation. The treated skin was covered with Lispro (HUMALOG®) or Regular (HUMULIN®R) 1.5 IU insulin-printed patches. SC injections of 0.4 IU served as a positive control. Blood samples were withdrawn from the tip of the rat's tail at 0, 2, 4, and 6 hr post application, and glucose level was determined.

For the next data set, the system named is IGF-1. The experiment in a line: IGF-1 in the serum of hypophysectomized rats after rhGH (Example 3). The data set is classed as in vivo. An excerpt:
GH is produced by the pituitary gland (hypophysis) and acts in several ways and on several targets. A distinctive role attributed to GH is the induction of IGF-1 production by liver cells (hepatocytes). As GH is the main trigger for the production of IGF-1, the activity of GH can be detected by measuring IGF-1 levels in the blood. GH levels in the blood can be directly analyzed as well.
Results 1. rhGH in the Serum

A short description of data set [2]: rhGH in serum after printed patches and ViaDerm, hypophysectomized rats (Example 4). Type of data set: in vivo. Here is the method: The materials and methods applied in this example were similar to those in EXAMPLE 3 except from the following points: • a) The animals were treated with ELTROXIN™ and hydrocortisone only until 10 days before initiating the treatments. • b) The test article was a printed patch of rhGH in two doses: 0.15 mg/patch and 0.5 mg/patch. The patches were composed of a backing liner (DOW BLF2080™, The Dow Chemical Company, MI, USA) on which drops of GENOTROPIN® were evenly placed. All the patches contained 144 drops over an area 1.4×1.4 cm^2. The printed patch was attached to the skin by a fixing patch, 2 cm×2 cm with 300 μm thick (wet) glue (DURO-TAK™ 3872516; National Starch & Chemical Pty Ltd, NSW, Australia) on the backing liner. • c) The experimental setup included 2 groups of 3 rats each: • Group 1: Treated with ViaDerm+one 0.15 mg printed patch. • Group 2: Treated with ViaDerm+one 0.5 mg printed patch. Results 1. Printed Patches

A short description of data set [3]: Bioavailability of rhGH printed patches with ViaDerm in normal rats (Example 5). The data set is classed as in vivo. Here is the method:
(§1) ViaDerm micro-channeling apparatus was used. The density of the microelectrode array used in these studies was 100 microelectrodes/cm^2. The device was applied twice on each location, so the density of the micro channels was 200/cm^2. The skin was treated with an applied voltage of 330V, frequency of 100 kHz, two bursts, 700 microsecond burst length, and no current limitation.
(§2) Male Guinea pigs (500-800 grams, Dunkin Hartley, Harlan laboratories Ltd., Israel) and Male rats (350-400, Sprague Dawley, Harlan laboratories Ltd., Israel), were premedicated with IP injections of 10% ketamin/2% xylazine solution at a ratio of 70:30, 1 ml/kg. Anesthesia was maintained with either isofluorane or halothane gas. The abdominal skin hair was shaved carefully, and was cleaned with isopropyl alcohol. After 30 min, transepidermal water loss, measurements (TEWL, Dermalab Cortex Technology, Hadsund, Denmark) were performed to check skin integrity. Skin micro channeling was performed by the use of the ViaDerm instrument with the conditions described above. TEWL was then measured again to control the operation. The treated skin was covered with the rhGH patches and blood samples were withdrawn from a preinserted carotid cannula in guinea pig or from the rat's tail at predetermined times post application. The serum was separated by centrifugation and analyzed for rhGH by Elisa kit (DSL-10-1900, Diagnostic Systems Laboratories, Inc. Webster, Tex., USA). The transdermal delivery of rhGH was compared to that of subcutaneous hGH delivery.

A short description of data set [4]: Bioavailability of rhGH printed patches with ViaDerm in guinea pigs (Example 5). Type of data set: in vivo. The protocol:
as §1, §2

The conditions of data set [5]: rat, in vivo.
Source text: • Animals: Rats, males, 250 gr, Sprague Dawley, hypophysectomized at Harlan USA labs. […] This fraction was spread on a hypoallergenic clear medical tape (Kendall Curity®, Emergency Medical Products Inc., USA) in doses specified below, and placed directly onto the skin as a transdermal patch. […]
The transdermal groups (1 and 2) received a treatment including: Shaving, drying, baseline Trans Epidermal Water Loss measurement (TEWL; DERMALAB® Cortex Technology, Hadsund, Denmark), two ViaDerm applications of 200 micropores/cm^2 (placebo for Group 2), second TEWL measurement and patch application. At the end of the study all animals were sacrificed by an IV overdose of sodium-pentobarbital (140 mg/kg). • ViaDerm parameters: burst length—500 μsec, starting amplitude—250 V, number of bursts—5 and applications per site—2 (200 micropores/cm^2). • Blood sampling: Blood samples (0.5 ml/rat) were withdrawn at 6 time points, t=0, 2, 4, 6, 12 and 24 hours, from the tail end of anesthetized rats (20 mg/rat ketamine, intramuscular). • Serum analysis: rhGH in the serum was detected using an Elisa kit (DSL-10-1900; Diagnostic Systems Laboratories, TX, USA) specific for rhGH. […] IGF-1 was detected according to RIA protocol (Endocrine, Vol. 16, no. 1, 1-6, October 2001). […]
Setting [6] is: diabetic rats, 1.5 IU insulin-printed patch on ViaDerm treated skin.
Setting [7] is: diabetic rats, 1.5 IU insulin-printed patch on ViaDerm treated skin, from about 400 mg/dl.
[8] abbreviates: hyperglycemic rats, transdermal.
The mark [9] stands for this setting: Group 1: ViaDerm + ~0.8 mg rhGH powder patch.
The mark [10] stands for this setting: Group 3: SC injection 150 μg/rat.
[11] abbreviates: Group 1: ViaDerm + 0.15 mg printed patch.
The mark [12] stands for this setting: Group 2: ViaDerm + 0.5 mg printed patch.
Setting [13] is: Transdermal printed patch, dose 75 μg.
[14] abbreviates: Transdermal printed patch, dose 150 μg.
The mark [15] stands for this setting: Transdermal printed patch, dose 300 μg.
Setting [16] is: Transdermal printed patch, dose 450 μg.
[17] abbreviates: Transdermal printed patch, dose 50 (mg).
The mark [18] stands for this setting: Transdermal printed patch, dose 150 (mg).
[19] abbreviates: Transdermal printed patch, dose 300 (mg).
Where [20] appears, read: Transdermal printed patch, dose 400 (mg).

Read-outs that look alike come from different tables or passages of the source.

As a reminder, the bioavailability is dose-corrected exposure relative to a reference, in per cent. For orientation: AUC means concentration integrated over time. High values mean more exposure, low ones less exposure. By Cmax is commonly meant the highest concentration seen after dosing.

Consider `CC(C)C[C@H](NC(=O)[C@H](CCCCN)NC(=O)CNC(=O)[C@H](CC(C)C)NC(=O)[C@@H](NC(=O)[C@@H]1CSSC[C@H](N)C(=O)N[C@@H](CO)C(=O)N[C@@H](CC(N)=O)C(=O)N[C@@H](CC(C)C)C(=O)N[C@@H](CO)C(=O)N[C@@H]([C@@H](C)O)C(=O)N1)C(C)C)C(=O)N[C@@H](CO)C(=O)N[C@@H](CCC(N)=O)C(=O)N[C@@H](CCC(=O)O)C(=O)N[C@@H](CC(C)C)C(=O)N[C@@H](Cc1c[nH]cn1)C(=O)N[C@@H](CCCCN)C(=O)N[C@@H](CC(C)C)C(=O)N[C@@H](CCC(N)=O)C(=O)N[C@H](C(=O)N[C@@H](Cc1ccc(O)cc1)C(=O)N1CCC[C@H]1C(=O)N[C@@H](CCCNC(=N)N)C(=O)N[C@H](C(=O)N[C@@H](CC(N)=O)C(=O)N[C@H](C(=O)NCC(=O)N[C@@H](CO)C(=O)NCC(=O)N[C@H](C(=O)N1CCC[C@H]1C(N)=O)[C@@H](C)O)[C@@H](C)O)[C@@H](C)O)[C@@H](C)O` [sCT], for which the Amount delivered in data set [1] (Printed patch 400 μg) was 31.92 µg; in data set [1] (patch 200 μg), 20.12 µg. In addition, the bioavailability in data set [1] (Printed patch 400 μg) came to 7.98%; in data set [1] (male, Large white, pig, plasma, other: transdermal printed patch on ViaDerm-treated skin, 200 ug, patch 200 μg, read-out: bioavailability) it was 10%; in data set [1] (male, Large white, pig, plasma, other: transdermal printed patch on ViaDerm-treated skin, 400 ug, Printed patch 400 μg, read-out: bioavailability), 8%; in data set [1] (patch 200 μg), 10.06%. In data set [1] (S.C. 16.7 μg, neck), this compound displayed an AUC of 206.377 ± 63.647 pg·min/mL. Moreover, the Cmax came out at 2.33 ± 0.673 ng/mL in data set [1] (male, Large white, pig, plasma, other: transdermal printed patch on ViaDerm-treated skin, 200 ug, patch 200 μg, ViaDerm, back); 2.82 ± 1.74 ng/mL in data set [1] (male, Large white, pig, plasma, other: transdermal printed patch on ViaDerm-treated skin, 400 ug, Printed patch 400 μg, ViaDerm, back); 2.21 ± 1.12 ng/mL in data set [1] (male, Large white, pig, plasma, sc, 16.7 ug, S.C. 16.7 μg, neck). Besides, the “decrease of plasma Ca++ concentrations from time 0” value with plasma Ca++ (SC administration 16.7 μg) is on record as approximately 25%. Further, in the data set on plasma Ca++ (transdermal from printed patches, regardless of sCT dose (200 or 400 μg)), the “decrease in plasma Ca++ concentrations” value is recorded as approximately 20%.

Consider “HUMALOG®: human recombinant insulin Lispro, 100 IU/ml (Lilly), used in 1.5 IU printed patches”, for which the “blood glucose level after 6 hr” value with blood glucose (setting [6]) is on record as “about 30 mg/dl”. Further, the “blood glucose level three hours following application” value with blood glucose (setting [7]) is given as “about 70 mg/dl”.

With “HUMULIN®: human recombinant insulin, regular, 100 IU/ml (Lilly), used in 1.5 IU printed patches”, the “blood glucose level after 6 hr” value in the data set with blood glucose (setting [6]) is “about 30 mg/dl”. The “blood glucose level three hours following application” value in the data set with blood glucose (setting [7]) is on record as “about 70 mg/dl”.

As for “insulin: insulin given as SC injection of 0.4 IU, positive control; product not specified”, the “blood glucose level after 6 hr” value in the data set with blood glucose (diabetic rats, SC injection 0.4 IU) is recorded as “about 200 mg/dl”. The “blood glucose level three hours following administration” value with blood glucose (diabetic rats, SC injection 0.4 IU, from about 400 mg/dl) is “about 70 mg/dl”. Further, in the data set with blood glucose (setting [8]), the “period of normal glucose level” value lay within 4 to 6 h and the “time to normal glucose level (100 mg/dl to 200 mg/dl glucose)” value lay within 1 to 3 h.

Consider “rhGH: recombinant human growth hormone, 22 kDa polypeptide; GENOTROPIN (Pharmacia & Upjohn) with mannitol”, for which the “IGF-1 in the serum” value is listed as “elevation of IGF-1” with IGF-1 (setting [9]), “low level of IGF-1” in the data set on IGF-1 (Group 2: rhGH patch on intact skin) and “anticipated elevation of IGF-1” in the data set with IGF-1 (setting [10]). Also, the “time of maximal average IGF-1 concentration” value with IGF-1 (setting [9]) was determined as 12 h. Besides, in the data set with IGF-1 (setting [10]), the “time of peak IGF-1 concentration” value amounted to 12 h. Moreover, the AUC absolute value came to 1594 ng·h/mL in data set [2] (setting [11]) and 6563 ng·h/mL in data set [2] (setting [12]). The “time of peak rhGH serum level” value worked out at 4 h in data set [2] (setting [11]) and 6 h in data set [2] (setting [12]). In addition, the AUC in data set [3] (SC, dose 150 μg) is 489 ng·h/mL; in data set [3] (setting [13]), 184 ng·h/mL; in data set [3] (setting [14]) it was 376 ng·h/mL; in data set [3] (setting [15]), 727 ng·h/mL; in data set [3] (setting [16]), 884 ng·h/mL; in data set [4] (SC, dose 50 (mg)), 176 ng·h/mL. Besides, the area under the curve (AUC) amounted to 57 ng·h/mL in data set [4] (setting [17]), 175 ng·h/mL in data set [4] (setting [18]), 362 ng·h/mL in data set [4] (setting [19]) and 404 ng·h/mL in data set [4] (setting [20]). Moreover, the “Bioavailability (% of SC)” value was 100 % of SC in data set [3] (SC, dose 150 μg (reference)); 75.3 % of SC in data set [3] (setting [13]); 76.9 % of SC in data set [3] (setting [14]); 74.3 % of SC in data set [3] (setting [15]); 60.3 % of SC in data set [3] (setting [16]); 100 % of SC in data set [4] (SC, dose 50 (mg printed; reference)). Moreover, the “Bioavailability (% of SC)” value is recorded as 32.4 % of SC in data set [4] (setting [17]), 33.1 % of SC in data set [4] (setting [18]), 34.3 % of SC in data set [4] (setting [19]) and 28.7 % of SC in data set [4] (setting [20]). The “bioavailability compared to the SC group” value in data set [5] is given as 33.8%. Moreover, the “AUC normalized for 0.1 mg rhGH” value in data set [5] (sc) amounted to 1128 µg·h/mL.

The values are drawn from patent US7662404B2, “Transdermal delivery system for dried particulate or lyophilized peptides and polypeptides” (TransPharma Medical Ltd., priority 2002, dated 2010).
